What all share (experiment): yeast two-hybrid, liquid β-galactosidase quantification
The target of assay [1] is cycD2;1 in the GAL4 DNA-binding domain vector (yeast two-hybrid fusion) (Arabidopsis thaliana).
For assay [2], the target named is cycD1;1 in the GAL4 DNA-binding domain vector (yeast two-hybrid fusion) (Arabidopsis thaliana).
Assay [3] addresses cycA2;2 in the GAL4 DNA-binding domain vector (yeast two-hybrid fusion) (Arabidopsis thaliana).
The target of assay [4] is cycD3;1 in the GAL4 DNA-binding domain vector (yeast two-hybrid fusion / bait) (Arabidopsis thaliana).
For assay [5], the target named is PCNAAt in the GAL4 DNA-binding domain vector (yeast two-hybrid fusion) (Arabidopsis thaliana).
Assay [6] addresses Cdc2b in the GAL4 DNA-binding domain vector (yeast two-hybrid fusion) (Arabidopsis thaliana).
For assay [7], the target named is ATMAP2 in the GAL4 DNA-binding domain vector (yeast two-hybrid fusion) (Arabidopsis thaliana).
The target in assay [8] is cycB2;2 in the GAL4 DNA-binding domain vector (yeast two-hybrid fusion) (Arabidopsis thaliana).
Assay [9] addresses DB-vector alone (GAL4 DNA-binding domain without insert), control (UniProt P04386).
Assay [10] deals with Cdc2a in the GAL4 DNA-binding domain vector (yeast two-hybrid fusion) (Arabidopsis thaliana).
For assay [11], the target named is cycB1;1 in the GAL4 DNA-binding domain vector (yeast two-hybrid fusion) (Arabidopsis thaliana).

“ICK1 in a GAL4-activation domain vector (yeast two-hybrid fusion) (from UniProt P04386 768-881)”: the Quantification was 14.8 in [1]; 3.13 in assay [2]; 0.03 in [3]; 22.7 in [4]; 0 in assay [5]; 0 in [6]. Besides, the Quantification in [7] was 0; in assay [8], 0.05; in assay [9] it was 0; in assay [10], 2.65; in [11] it was 0.06.

Source of the values: patent publication US20010025379A1.
